# Results published in IntAct's records for PubMed 14625560.
# B1: Cell cycle serine/threonine-protein kinase hsk1 (Schizosaccharomyces pombe (strain ATCC 38366 / 972)), P50582 (parent)
# chain: MAEAHITLSPKVTHEQQTDIDSECEITEVDDENVNENKSQEMIQDIPARDREEIENITRTFVELQENYRLIEKIGEGTFSSVYKAEDLHYGRYINDWDIQSEVLKESSFGKEKIPVNEDSRKPKYVAIKKIYATSSPARIYNELEILYLLRGSSVIAPLITALRNEDQVLVVLPYYEHTDFRQYYSTFSYRDMSIYFRCLFQAMQQTQTLGIIHRDIKPSNFLFDVRTKHGVLVDFGLAERYDGRQQSHSCRCTNSNAAELAHDFSIAQETSLGYIKNDTRPSKRANRAGTRGFRAPEVLFKCSSQSPKVDIWSAGVILLSFLTKRFPMFNSKDDVDALMEIACIFGKSEMRQCAALHGCTFETNVSTLTEKRVNFRKLILWASCGSASIYKEKLRHKPSQEERLCLDFLEKCLELDCNKRISAEEALDHDFLYLDNLAYEKKDDDTAFDNSFGETSFEKDEDLTAKHLSHILDFKEQEETDEPTSLSKRKRSIDEILPNDALQDGA
# partner: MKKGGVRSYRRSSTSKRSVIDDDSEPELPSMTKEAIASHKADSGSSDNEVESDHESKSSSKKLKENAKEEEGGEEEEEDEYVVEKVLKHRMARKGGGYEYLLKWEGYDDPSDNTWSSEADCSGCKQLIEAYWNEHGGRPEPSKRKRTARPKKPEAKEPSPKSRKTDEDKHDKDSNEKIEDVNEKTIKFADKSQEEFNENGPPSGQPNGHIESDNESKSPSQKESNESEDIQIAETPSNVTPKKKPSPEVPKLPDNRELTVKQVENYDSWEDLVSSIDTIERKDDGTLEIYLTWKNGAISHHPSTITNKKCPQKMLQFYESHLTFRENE
# Variants of: B1
# Details: with swi6_schpo swi6, P40381
row,effect of a mutation on the interaction,Variant
1,decreasing interaction,MAEAHITLSPKVTHEQQTDIDSECEITEVDDENVNENKSQEMIQDIPARDREEIENITRTFVELQENYRLIEKIGEGTFSSVYKAEDLHYGRYINDWDIQSEVLKESSFGKEKIPVNEDSRKPKYVAIKKIYATSSPARIYNELEILYLLRGSSVIAPLITALRNEDQVLVVLPYYEHTDFRQYYSTFSYRDMSIYFRCLFQAMQQTQTLGIIHRDIKPSNFLFDVRTKHGVLVDFGLAERYDGRQQSHSCRCTNSNAAELAHDFSIAQETSLGYIKNDTRPSKRANRAGTRGFRAPEVLFKCSSQSPKVDIWIAGVILLSFLTKRFPMFNSKDDVDALMEIACIFGKSEMRQCAALHGCTFETNVSTLTEKRVNFRKLILWASCGSASIYKEKLRHKPSQEERLCLDFLEKCLELDCNKRISAEEALDHDFLYLDNLAYEKKDDDTAFDNSFGETSFEKDEDLTAKHLSHILDFKEQEETDEPTSLSKRKRSIDEILPNDALQDGA [S314I]
